Measured values published in PMC7135997, “Cardiac myosin regulatory light chain kinase modulates cardiac contractility by phosphorylating both myosin regulatory light chain and troponin I” (The Journal of Biological Chemistry, 2020).

Assays:
rat cardiac troponin C = rat cardiac troponin C (rat, UniProt Q4PP99 1-161); test: SEC-MALS; complex reconstituted from the three separately purified subunits mixed 1:1:1 in 6 mol/liter urea, dialysed, purified on Resource-Q; Superdex 200 5/150 GL in 50 mmol/liter Tris-HCl (pH 7.4), 5 mM MgCl2, 1 mmol/liter CaCl2, 100 mM NaCl, 100 mmol/liter tris(2-carboxyethyl)phosphine; also characterized by HPLC and ESI-MS; settings: both partners purified
rat cardiac troponin I = target: T1, rat cardiac troponin I (rat, UniProt P23693 1-211); test: as above; settings: both partners purified
T1 construct: cardiac troponin I, rat, cloned from a rat heart cDNA library into pET3a, codon-optimized; No tag is named; unphosphorylated recombinant protein; also called rcTnI; rat cTnI; source: E. coli BL21(DE3)-RIPL, inclusion bodies, purified (CM Sepharose in 6 mol/liter urea)
T1 sequence (P23693 whole entry): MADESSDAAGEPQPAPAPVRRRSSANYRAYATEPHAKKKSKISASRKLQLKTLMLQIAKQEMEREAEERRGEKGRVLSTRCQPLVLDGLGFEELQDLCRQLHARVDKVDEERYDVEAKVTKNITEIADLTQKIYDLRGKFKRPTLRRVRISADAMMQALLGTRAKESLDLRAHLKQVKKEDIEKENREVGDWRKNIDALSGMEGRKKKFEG

stoichiometry N (rat cardiac troponin C): 1
stoichiometry N (rat cardiac troponin I): 1
B1: rat cardiac troponin T (natural protein)
chain: not shown
notes: cardiac troponin T, rat, cloned from a rat heart cDNA library into pET3a, codon-optimized; also called rat cTnT; rcTnT; source: E. coli BL21(DE3)-RIPL, soluble fraction, purified (ion exchange, similar method to rcTnI)
